{"source": "patent US20220096653A1", "about": "“CONJUGATE COMPRISING LIGAND AND CEACAM5 ANTIBODY FAB FRAGMENT” (ASTELLAS PHARMA INC., priority 2019, published 2022)", "molecules": {"B1": {"name": "Ex-No 108 (conjugate)", "heavy": "QVQLVQSGAEVKKPGASVKVSCKASGYTFTNYGLSWVRQAPGQGLEWMGENHPGSGIIYHNEKFRGRVTLTADRSTSTAYMELSSLRSEDTAVYYCARSSGTRGFDYWGQGTLVTVSSASTKGPSVFPLAPSSKSTSGGTAALGCLVKDYFPEPVTVSWNSGALTSGVHTFPAVLQSSGLYSLSSVVTVPSSSLGTQTYICNVNHKPSNTKVDKKVEPKSCD", "light": "DVVMTQTPLSLSVTPGQPASISCRSSQSIVHSNGNTYLEWYLQKPGQSPQLLIYRVSNRFSGVPDRFSGSGSGTDFTLKISRVEAEDVGVYYCFQGSHGPWTFGQGTKLEIKRTVAAPSVFIFPPSDEQLKSGTASVVCLLNNFYPREAKVQWKVDNALQSGNSQESVTEQDSKDSTYSLSSTLTLSKADYEKHKVYACEVTHQGLSSPVTKSFNRGEC", "modifications": "non-natural residues"}}, "key": {"[1]": {"system": "human breast cancer cell line MDA-MB-468", "test": "Amount of tumor accumulation of Gd-labeled Fab^5 conjugates, MDA-MB-468 tumor-bearing mice (Example 8)", "settings": "control conjugate Ex-No. 108, mean for 2 runs, 24 hours", "quoted_text": "(§3) A Gd-labeled conjugate of the conjugate containing a peptide linker produced in one of the above Examples was administered from the tail vein of the tumor-bearing mice so that the protein mass was 0.02 mg (100 μL) per animal. As the tumor-bearing mice used in the present Example, mice (BALB/c nu/nu) that were in a tumor-bearing state brought about by transplanting human breast cancer cell line MDA-MB-468 (ATCC(registered trademark); HTB-132) at 5.0×10^6 cells/mouse subcutaneously on the back before administration of the sample were used. 24 hours after administration of the sample, the mice were sacrificed, the kidneys and the tumor were removed, and the amounts of Gd in the kidneys and in the tumor were measured using ICP-MS. The present test was carried out in 3 cases in each group, and the mean value of the 3 cases was calculated. The amount of Gd contained per kidney after administration was shown as a percentage of the amount of Gd administered (% of dose/tissue), and the amount of Gd contained per g of tumor tissue was shown as a percentage of the total amount of Gd administered (% of dose/g)."}, "[2]": {"molecular_target": "human cancer-specific MUC1 peptide", "sequence (as listed by the source)": "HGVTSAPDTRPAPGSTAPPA", "test": "ELISA binding activity of anti-human MUC1 antibody Fab^5 fragment conjugates (Example 6-1)", "settings": "each conjugate run in duplicate; Table 52; read-out: EC50", "method": "(§1) Each anti-human MUC1 antibody Fab^5 fragment conjugate prepared by the method of Example 5 was subjected to ELISA to evaluate the binding activity thereof to human cancer-specific MUC1. In the present test, 20×PBS/Tween 20 Buffer (Thermo Fisher Scientific Inc., 28352) diluted 20-fold with distilled water was used as a wash liquid. In addition, for bovine serum albumin (BSA) used in the present test, 30% Bovine Serum Albumin solution (Sigma-Aldrich, Inc., A9576-50ML) was added in an appropriate proportion for use. A human cancer-specific MUC1 peptide (PTL 1) at 0.5 μmol/L was added to a Nunc MaxiSorp White 384 plate (Nunc, 460372) at 30 μL per well, and the plate was incubated overnight at 4° C. for immobilization. The MUC1 peptide was removed by reverse centrifugation, and then blocking was carried out by adding a PBS/Tween 20 buffer containing 5.0% BSA. Thereafter, the blocking solution was removed by reverse centrifugation, a solution of each anti-human MUC1 antibody Fab^5 fragment conjugate (Ex-No. 104, 108, or 112) described above at about 10000 ng/mL was diluted in 14 steps by 3-fold dilution using a PBS/Tween 20 buffer containing 1.0% BSA, and 30 μL was added per well and incubated at room temperature for 60 minutes. The plate was washed 3 times with a PBS/Tween 20 buffer, and Horseradish Peroxidase-labeled goat anti-human IgK antibody (Southern Biotechnology Associates, Inc.) diluted 10000-fold using a PBS/Tween 20 buffer containing 5.0% BSA was added at 30 μL per well and incubated at room temperature for 30 minutes. The plate was washed 3 times with a PBS/Tween 20 buffer, and ECL Prime Western Blotting DETECTION Reagent (GE Healthcare, RPN2232) as a substrate was added at 30 μL per well. The substrate was incubated at room temperature for 15 minutes, and then a signal value thereof was measured using an Envision counter (PerkinElmer, Inc.).\n(§2) The test for each antibody was carried out in duplicate, and the EC50 value was calculated using a 4-parameter logistic curve model."}, "[3]": {"parameters": "species or system mice (BALB/c or BALB/c nu/nu)", "settings": "mouse, in vivo", "quoted_text": "A Gd-labeled conjugate of the conjugate containing a peptide linker produced in one of the above Examples was administered from the tail vein of mice (BALB/c or BALB/c nu/nu) so that the protein mass was 0.02 mg (100 μL) per animal. After about 24 hours, the mice were sacrificed and the kidneys were removed, and the amount of Gd in the kidneys was measured using ICP-MS. The present test was carried out in 3 cases in each group, the mean value of the 3 cases was calculated, and the amount of Gd contained per kidney after administration was shown as a percentage (% of dose/tissue) of the total amount of Gd administered.\nBased on the amount of Gd contained in the kidneys of the control conjugate, the proportion of decrease in the amount of Gd contained in the kidneys of each of the conjugates having a peptide linker was determined."}, "[4]": {"molecular_target": "human cancer-specific MUC1 peptide (Homo sapiens, UniProt P15941)", "test": "ELISA binding activity of anti-human MUC1 antibody Fab^5 fragment conjugates (Example 6-2)", "settings": "each conjugate run in duplicate; Table 54; read-out: EC50", "method": "as §1, with “101-113)” for “104, 108, or 112)”\nas §2"}, "[5]": {"parameters": "species or system mice (BALB/c nu/nu)", "settings": "mouse, in vivo", "quoted_text": "as §3"}}, "data": [{"molecule": "B1", "values": [{"measurement": "Amount of tumor accumulation Mean", "setting": "[1]", "result": "0.92 % of dose/g"}, {"measurement": "EC50", "setting": "[2]", "result": 0.07, "unit": "nM"}, {"measurement": "Renal residual amount (normal mice) Mean", "setting": "[3]", "result": "33.00 % of dose/tissue"}, {"measurement": "EC50", "setting": "[4]", "result": 0.07, "unit": "nM"}, {"measurement": "Renal residual amount Mean", "setting": "[5]", "result": "34.67 % of dose/tissue"}]}]}
